Test results from patent US11918683B2, “Treatment of immune diseases by administration of antigen-specific formulations” (Allero Therapeutics B.V., priority 2017, dated 2024).
Ends that are not written are not given here.

Assays:
[1] = tested on: Foxp3; test: Foxp3 expression within CD4+ T cell population by FACS; type: cell-based, NOD AB° DQ8 transgenic mice; settings: spleen
Procedure: Flow cytometric analysis: spleens and cervical lymph node tissue of SLIT treated mice were isolated, prepared as described above and stained for CD4, CD25 and Foxp3. Intracellular staining was performed for Foxp3 according to the manufacturer's instructions (eBiosciences) and subsequently measured using flow cytometry on a Becton Dickinson FACSCaliburs. Cells were gated on CD4^+CD25^+ and CD4^+CD25^− subpopulations and within these populations Foxp3 histograms were used to determine Mean Fluorescence Intensity (MFI).
T-cell phenotyping: CD4 and CD25 antibodies were purchased from BD Biosciences, and APC anti-Foxp3 staining kits were purchased from eBiosciences. Anti-IL-10 neutralizing monoclonal antibody (1 μg/mL, clone JES052A5), TGF-β neutralizing monoclonal antibody (1 μg/mL, clone 1D11) and LAP (latency associated peptide) neutralizing antibodies (1 μg/mL, clone 27235) were obtained from R&D systems.

[2] = tested on: NOD AB° DQ8 transgenic mice; test: Antigen-specific DTH response (ear swelling) after SLIT; type: in vivo; settings: 10 μg DQ8d in ear, 24 hours, compared to PBS
[3] = tested on: OVA- or Ovm-sensitized piglets; test: Piglet food allergy model, oromucosal PSF patch treatment; type: in vivo, Landrace-Yorkshire piglets; settings: oromucosal once weekly for 6 weeks
[4] = tested on: OVA- or HDM-sensitized mice; test: Sublingual immunotherapy (SLIT) mouse model; type: in vivo, BALB/cByJ mice; settings: sublingual 5 days a week for 8 weeks
Procedure: Antigen: naturally purified Der p1 and 2 in a 50:1 ratio was purchased from Citeq or intact, LPS-free OVA grade V protein (Sigma Aldrich) was used as antigen in all experiments. Animals: BALB/cByJ mice were purchased from Charles River Laboratories at an age of 6 to 8 weeks and housed in individually ventilated cages (IVC). Sensitization of mice: all mice received intraperinoneal injections on day 1 and 15 of 5 μg crude extract […]) or 25 μg OVA adsorbed to 2.25 mg Alum (Imject, Pierce) in 100 μL PBS. […] Hereafter, airway responsiveness was determined, and bronchoalveolar lavage fluid (BALF), lungs, and blood were collected and stored for analyses. Measurement of airway hyperreactivity to methacholine: airway hyperresponsiveness (AHR) was assessed by measuring airway resistance (R in cmH2O.s/mL) and lung compliance (C in mL/H2O) in response to intravenous administration of increasing doses of methacholine (Sigma-Aldrich). The AHR was expressed as the effective dose of methacholine required to induce a R of 3 cmH2O.s/mL (ED3). […] ELISA determined the concentrations of IL-5, IL-10, IL-13 and IFN-γ, according to the manufacturer's instructions (BD Pharmingen). […]

deaminated DQ8d peptide GAPVPYPDPLEPRQYPSGEGSFQPSQENPQA (also: deaminated (sites not given here)) [deaminated gliadin peptide antigen]
number of Foxp3 CD4+ T cells [1]: did not show a significant increase
DTH response (ear swelling) [2]: slight reduction

B1: Ovm: Ovm protein (ovomucoid) used as antigen (protein, UniProt P01005 25-210, looked up)
Ovomucoid: AEVDCSRFPNATDKEGKDVLVCNKDLRPICGTDGVTYTNDCLLCAYSIEFGTNISKEHDGECKETVPMNCSSYANTTSEDGKVMVLCNRAFNPVCGTDGVTYDNECLLCAHKVEQGASVDKRHDGGCRKELAAVSVDCSEYPKPDCTAEDRPLCGSDNKTYGNKCNFCNAVVESNGTLTLSHFGKC
AHR [3]: only a moderate effect

B2: OVA: intact, LPS-free OVA grade V protein (ovalbumin) used as antigen (protein, UniProt P01012 2-386, looked up)
Ovalbumin: GSIGAASMEFCFDVFKELKVHHANENIFYCPIAIMSALAMVYLGAKDSTRTQINKVVRFDKLPGFGDSIEAQCGTSVNVHSSLRDILNQITKPNDVYSFSLASRLYAEERYPILPEYLQCVKELYRGGLEPINFQTAADQARELINSWVESQTNGIIRNVLQPSSVDSQTAMVLVNAIVFKGLWEKAFKDEDTQAMPFRVTEQESKPVQMMYQIGLFRVASMASEKMKILELPFASGTMSMLVLLPDEVSGLEQLESIINFEKLTEWTSSNVMEERKIKVYLPRMKMEEKYNLTSVLMAMGITDVFSSSANLSGISSAESLKISQAVHAAHAEINEAGREVVGSAEAGVDAASVSEEFRADHPFLFCIKHIATNAVLFFGRCVSP
AHR [4]: only a moderate effect
AHR [3]: only a moderate effect
